Assay results as given in publication PMC2965674, “Functional Roles of the N- and C-Terminal Regions of the Human Mitochondrial Single-Stranded DNA-Binding Protein” (PLoS ONE, 2010).

Experiments:
[1] = molecular target: HsmtSSBΔN, deletion variant lacking the first 9 residues in the N-terminus of mature HsmtSSB (human); assay: SEC + other: glycerol gradient velocity sedimentation; 12-30% glycerol gradients, 264,000 x g, 63 hr, 4°C, 35 mM Tris-HCl pH 7.5, 100 mM NaCl, 2 mM EDTA, 5 mM DTT; Superdex 75 gel filtration in the same buffer with 8% glycerol, 4°C; native mass calculated from the S value and the Stokes radius
[2] = molecular target: the molecule itself; assay: as above
[3] = molecular target: T1, HsmtSSBΔNΔC (Homo sapiens, UniProt Q04837 =M+26-141, internal_change); assay: EMSA; 50 mM NaCl, 4 mM Mg2+; apparent Kd, protein as tetramer; 20 mM Tris-HCl pH 7.5, 1 mM DTT, 4 mM MgCl2, 50 mM NaCl, 36 fmol 48-mer in 20 µL, 20°C 10 min; 6% native PAGE; details: protein: recombinant; tags: none (untagged); chain copies: 4; label: 5'-32P; single strand
T1 sequence: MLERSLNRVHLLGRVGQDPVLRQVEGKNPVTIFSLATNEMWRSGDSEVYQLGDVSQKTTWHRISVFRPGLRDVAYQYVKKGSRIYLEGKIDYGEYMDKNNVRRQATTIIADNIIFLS

[4] = molecular target: T2, HsmtSSBwt (mature human mitochondrial SSB) (Homo sapiens, UniProt Q04837 17-148); assay: as above; details: protein: recombinant; tags: none (untagged); chain copies: 4; label: 5'-32P; single strand
T2 sequence: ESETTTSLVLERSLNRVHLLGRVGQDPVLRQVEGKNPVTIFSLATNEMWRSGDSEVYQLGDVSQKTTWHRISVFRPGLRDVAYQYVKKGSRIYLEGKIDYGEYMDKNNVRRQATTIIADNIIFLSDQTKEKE

[5] = molecular target: T3, HsmtSSBΔC (Homo sapiens, UniProt Q04837 =M+17-141, internal_change); assay: as above; details: protein: recombinant; tags: none (untagged); chain copies: 4; label: 5'-32P; single strand
T3 sequence: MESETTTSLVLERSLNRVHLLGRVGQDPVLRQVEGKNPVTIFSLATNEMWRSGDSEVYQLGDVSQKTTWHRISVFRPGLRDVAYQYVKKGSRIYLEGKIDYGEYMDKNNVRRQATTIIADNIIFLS

[6] = molecular target: T4, HsmtSSBΔN (Homo sapiens, UniProt Q04837 =M+26-148, internal_change); assay: as above; details: protein: recombinant; tags: none (untagged); chain copies: 4; label: 5'-32P; single strand
T4 sequence: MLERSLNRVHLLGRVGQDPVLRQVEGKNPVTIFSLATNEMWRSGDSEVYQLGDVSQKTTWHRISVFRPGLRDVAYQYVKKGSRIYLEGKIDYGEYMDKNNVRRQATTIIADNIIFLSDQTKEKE

## HsmtSSBΔN, deletion variant lacking the first 9 residues in the N-terminus of mature HsmtSSB (domain or fragment)
[1]
  stoichiometry N: 4

B1: human mitochondrial single-stranded DNA-binding protein, mature wild type (HsmtSSBwt) (natural protein, UniProt Q04837 17-148, looked up)
chain: ESETTTSLVLERSLNRVHLLGRVGQDPVLRQVEGKNPVTIFSLATNEMWRSGDSEVYQLGDVSQKTTWHRISVFRPGLRDVAYQYVKKGSRIYLEGKIDYGEYMDKNNVRRQATTIIADNIIFLSDQTKEKE
notes: numbers count on: the mature protein; Untagged; The forward primer (CATATG GAGTCC...) puts a start methionine before the first mature residue; also called human mtSSB; source: E. coli BL21(DE3), pET-11a, untagged, purified (Blue Sepharose, phosphocellulose)
[2]
  stoichiometry N: 4

B2: HsmtSSBΔC, deletion variant lacking the last 7 residues in the C-terminus of HsmtSSB (domain or fragment, human, UniProt Q04837 17-141, looked up)
chain: ESETTTSLVLERSLNRVHLLGRVGQDPVLRQVEGKNPVTIFSLATNEMWRSGDSEVYQLGDVSQKTTWHRISVFRPGLRDVAYQYVKKGSRIYLEGKIDYGEYMDKNNVRRQATTIIADNIIFLS
notes: human mtSSB, mature protein lacking its last 7 residues; numbers count on: the mature protein; Untagged; The reverse primer puts a new stop codon after codons that read ...D-N-I-I-F-L-S. A start methionine precedes the first mature residue
[2]
  stoichiometry N: 4

## GGACTATTTATTAAATATATTTAAGAACTAATTCCAGCTGAGCGCCGG (ssDNA) [48-mer ssDNA oligonucleotide]
[3]
  Kd: ~5 nM
[4]
  Kd: ~5 nM
[5]
  Kd: ~5 nM
[6]
  Kd: ~5 nM

B3: HsmtSSBΔNΔC, variant of HsmtSSB that lacks both termini (first 9 and last 7 residues of the mature protein) (domain or fragment, human, UniProt Q04837 26-141, looked up)
chain: LERSLNRVHLLGRVGQDPVLRQVEGKNPVTIFSLATNEMWRSGDSEVYQLGDVSQKTTWHRISVFRPGLRDVAYQYVKKGSRIYLEGKIDYGEYMDKNNVRRQATTIIADNIIFLS
notes: human mtSSB, mature protein lacking its first 9 and its last 7 residues; numbers count on: the mature protein; Untagged; Made with the forward primer of ΔN (new start methionine before L-E-R-S) and the reverse primer of ΔC (stop after ...F-L-S); source: E. coli BL21(DE3), pET-11a, untagged, purified (Blue Sepharose, phosphocellulose)
[2]
  stoichiometry N: 4
